Where “and” joins values, the source holds several entries; their conditions need not be identical. Equal entries are not always repeated.
Molecular target: peptide-conjugate (Example 1; lactosyl-Ser-…-Cys coupled to KLH) (influenza virus)

B1: F211-11H12 (antibody, V domains shown)
VL: DIVMSQSPSSLAVSVGEKVTMSCKSSQSLLNSRNQKNHLAWYQQKPGQSPKLLIYWASTRESGVPDRFTGDGSGTDFTLTISSVKAEDLAVYYCQQYYTYRTFGGGTKLEIK
VH: DVQLQESGPGLVKPSQSLSLTCSVTGYSITSDYYWNWIRQFPGNKLEWMAYIGYDGTKNYNPSLKNRISITRDTSKNQFFLKLNSVTTDDTATYYCTRDRANWDDYFDYWGQGTTLTVSS
  EC50 (read off the curve): 0.03 µg/mL and 0.02 µg/mL
